{"source": "paper PMC8860596", "about": "(Nucleic Acids Research, 2021)", "key": {"CreYin;CreYang [1]": {"target": "T1, CreYin;CreYang (P1 phage;P1 phage, UniProt P06956;P06956 1-343;1-343, D33A;A36V;R192A|R72E;L115D;R119D)", "test": "native MS"}, "CreYin [2]": {"target": "T2, CreYin (P1 phage, UniProt P06956 1-343, D33A;A36V;R192A)", "test": "native MS"}, "CreYang [3]": {"target": "T3, CreYang (P1 phage, UniProt P06956 1-343, R72E;L115D;R119D)", "test": "native MS"}, "CreYin;CreYang [4]": {"target": "T1, CreYin;CreYang", "test": "EMSA"}, "CreYin [5]": {"target": "T2, CreYin", "test": "EMSA"}, "CreYang [6]": {"target": "T3, CreYang", "test": "EMSA"}, "Cre K201A [7]": {"target": "T4, Cre K201A (P1 phage, UniProt P06956 1-343, K201A)", "test": "EMSA"}, "Cre deltaN (CreΔαN)": {"target": "Cre deltaN (CreΔαN) (P1 phage, UniProt P06956 1-330)", "test": "EMSA"}, "Cre K201A [8]": {"target": "T4, Cre K201A", "test": "cryo-EM"}, "CreYin;CreYang [9]": {"target": "T1, CreYin;CreYang", "test": "cryo-EM"}, "native gel or EMSA": {"target": "the molecule itself", "test": "native gel or EMSA"}, "CreYin [10]": {"target": "T2, CreYin", "test": "cryo-EM"}}, "data": [{"binder": "loxP-38 (dsDNA) DNA 1: CGATAACTTCGTATAATGTATGCTATACGAAGTTATGC DNA 2: GCATAACTTCGTATAGCATACATTATACGAAGTTATCG", "values": [{"measurement": "binding result", "setting": "CreYin;CreYang [1]", "value": "binds"}, {"measurement": "binding result", "setting": "CreYin [2]", "value": "binds"}, {"measurement": "binding result", "setting": "CreYang [3]", "value": "binds"}]}, {"binder": "loxP-54 (dsDNA) DNA 1: CGAGTGGCCGATAACTTCGTATAATGTATGCTATACGAAGTTATGCGGCGTGAC DNA 2: GTCACGCCGCATAACTTCGTATAGCATACATTATACGAAGTTATCGGCCACTCG", "values": [{"measurement": "binding result", "setting": "CreYin;CreYang [4]", "value": "binds"}, {"measurement": "binding result", "setting": "CreYin [5]", "value": "binds"}, {"measurement": "binding result", "setting": "CreYang [6]", "value": "binds"}, {"measurement": "binding result", "setting": "Cre K201A [7]", "value": "binds"}, {"measurement": "binding result", "setting": "Cre deltaN (CreΔαN)", "value": "binds"}]}, {"binder": "loxP-44 (dsDNA) DNA 1: CGGCGATAACTTCGTATAATGTATGCTATACGAAGTTATGCGGC DNA 2: GCCGCATAACTTCGTATAGCATACATTATACGAAGTTATCGCCG", "values": [{"measurement": "binding result", "setting": "Cre K201A [8]", "value": "binds"}, {"measurement": "binding result", "setting": "CreYin;CreYang [9]", "value": "binds"}]}, {"binder": "Cre recombinase K201A (cleavage-deficient variant) (enzyme, P1 phage) MSNLLTVHQNLPALPVDATSDEVRKNLMDMFRDRQAFSEHTWKMLLSVCRSWAAWCKLNNRKWFPAEPEDVRDYLLYLQARGLAVKTIQQHLGQLNMLHRRSGLPRPSDSNAVSLVMRRIRKENVDAGERAKQALAFERTDFDQVRSLMENSDRCQDIRNLAFLGIAYNTLLRIAEIARIRVKDISRTDGGRMLIHIGRTATLVSTAGVEKALSLGVTKLVERWISVSGVADDPNNYLFCRVRKNGVAAPSATSQLSTRALEGIFEATHRLIYGAKDDSGQRYLAWSGHSARVGAARDMARAGVSIPEIMQAGGWTNVNIVMNYIRNLDSETGAMVRLLEDGD", "values": [{"measurement": "stoichiometry N", "setting": "native gel or EMSA", "value": 4}]}, {"binder": "GCATAACTTCGTATAGCATATGCGAAGCATATGCTATACGAAGTTATGC (structured_DNA)", "note": "[loxA hairpin]", "values": [{"measurement": "binding result", "setting": "CreYin [10]", "value": "binds"}]}]}
